These results are taken from PMC6123711, “Conformational signatures in β-arrestin2 reveal natural biased agonism at a G-protein-coupled receptor” (Communications Biology, 2018).

Entries after “also recorded” stand apart in the source; their conditions may differ.

Holding throughout (format): cell-based, human
Experiment [1] relates to Galr2. The experiment in a line: Gαq-dependent Erk1/2 phosphorylation (β-arrestin1/2-knockout HEK293 cells). The conditions noted are these: for ΔLog(τ/KA), Gαq-dependent-pErk1/2: normalized to Galanin (reference agonist), in parenthesis, mean ± s.e.m. of three experiments in triplicate; for Log(τ/KA), Gαq-dependent-pErk1/2: western blot, 5 min stimulation, operational model (Eq. 2), mean ± s.e.m. of three experiments in triplicate (table footnote). An excerpt:
(§1) Galr2 is primarily coupled to the Gαq-protein which activates the phospholipase C/protein kinase C pathway for inositol phosphate production. We measured G-protein activation in HEK293 cells transiently expressing Galr2, using the serum response element-luciferase (SRE-Luc) gene reporter assay[10],[37] and for a more specific monitoring of Gαq-protein activity we also measured total inositol phosphate production. […] However, some differences were observed between SRE-Luc activity and total inositol phosphate production in the rank order of potency of the tested ligands. […] Phosphorylation of extracellular signal-regulated protein kinases 1 and 2 (pErk1/2) is either G-protein or β-arrestin dependent. To distinguish Gαq-protein- and β-arrestin1/2-dependent Erk1/2 signaling, we examined ligand-stimulated Erk1/2 phosphorylation in three different HEK293 cell lines, wild type, Gαq/11-knockout, and β-arrestin1/2-knockout cells. All three ligands induced high levels of Erk1/2 phosphorylation dose-dependently in wild-type HEK293 cells.
(§2) Fig. 5 Galr2 agonists display different Gαq-protein-dependent signaling and pErk1/2. The ability of increasing concentrations of agonists to induce a SRE-Luc activity and b total inositol phosphate production. c Representative western blot showing ligand-induced phosphorylation of Erk1/2 from wild-type (HEK293 WT), Gαq/11-, and β-arrestin1/2-knockout HEK293 cells expressing Galr2 (original blots are presented in Supplementary Figure 4). pErk1/2 and total Erk levels were determined at 5 min after stimulation of different concentrations of three ligands. Western blot band intensities corresponding to each concentration were quantified using Image studio ^TM Software. […] Data are the mean ± s.e.m. values of two independent experiments
(§3) pErk1/2 was measured using western blot assay. HEK293 Gαq/11 and β-arrestin1/2-knockout cells were a kind gift from Professor Asuka Inoue, Tohoku University. The cells were seeded into 6-well plates at a density of 6 × 10^5 cells per well. The next day, they were transfected using 2 μg/well of plasmid containing human Galr2 cDNA and Lipofectamine 2000, according to the manufacturer’s instructions. Before assay, the cells were washed with phosphate-buffered saline and incubated in serum-free DMEM overnight. Dose–response experiments were performed for each ligand at 37 °C. Stimulation of the cells was terminated after 5 min of agonist stimulation by removing the medium, and the addition of 250 μl cold lysis buffer to each well. Immunoblots of phospho-Erk1/2 were obtained using 8 μg of total protein and p44/42 MAPK Erk1/2 antibody (Cell Signaling Technology Inc, catalog no. 4370 S); horseradish peroxidase-conjugated goat anti-rabbit IgG was used as a secondary antibody (Thermo Fisher Scientific). The proteins were visualized using enhanced chemiluminescence (GE Health Care). Image Studio ^TM Software was used for the pErk1/2 band density analysis.
For orientation: A western blot detects proteins with antibodies after separation by electrophoresis.

The subject of experiment [2] is Galr2. The experiment in a line: Galr2 internalization assay based on HiBiT technology. The conditions noted are these: HEK293 cells; agonist 30 min; two independent experiments in triplicate. On the procedure: The HiBiT protein tagging system, like NanoBiT technology, consists of two subunits: the large fragment (LgBiT) with 156 amino acids and the small fragment of Nluc (SmBiT-High-affinity) with only 11 amino acids that has a very high affinity to LgBit. To quantify Galr2 at the cell surface, cells expressing Galr2 tagged with the SmBiT-High-affinity were treated with cell-impermeable LgBiT along with the Nluc substrate furimazine. SmBiT-High-affinity-Galr2 on the cell surface binds to LgBiT which produces a luminescent signal, while SmBiT-High-affinity-Galr2 inside the cells cannot bind to LgBiT (Fig. 4a).
Fig. 4 Internalization of Galr2. a Schematic representation of the internalization assay. […] Before ligand stimulation, cells were pretreated with 30 μM Cmpd101 (a GRK2/3 inhibitor) for 30 min, 25 μM PitStop 2 (a Clathrin inhibitor) for 15 min, and 80 μM Dynasore (a Dynamin inhibitor) for 40 min. […] Remaining cell surface receptors were determined by measuring the luminescent signal produced by the binding between LgBiT and the Galr2-SmBiT-High affinity. Each data point represents mean ± s. e. m. of two independent experiments performed in triplicate
Quantification of bias between each pathway was performed using Galanin as a reference ligand. All incubations for the different signaling assays were performed in serum-free medium to prevent peptide degradation.
Internalization assays were performed using the Nano-Glo HiBiT extracellular detection system acquired from Promega Corporation (Cat. No. N2421). The day before transfection, HEK293 cells were seeded in 96-well plates at a density of 2.5 × 10^4 cells per well. The following day, cells were transfected with a mixture prepared containing 0.5 ng of SmBiT-high-affinity-Galr2 construct and 0.2 μl Lipofectamine 2000 (Invitrogen) added to each well. […] Then luminescence values were recorded immediately (Synergy 2 Multi-Mode Microplate Reader BioTek). […]
A general note: HiBiT is a short tag that completes a luciferase, so light tracks the accessible tagged protein.

The subject of experiment [3] is Galr2. Put plainly: β-Arrestin1/2-dependent Erk1/2 phosphorylation (Gαq/11-knockout HEK293 cells). Particulars: for ΔLog(τ/KA), β-Arrestin1/2 dependent-pErk1/2: normalized to Galanin (reference agonist), in parenthesis, mean ± s.e.m. of three experiments in triplicate; for Log(τ/KA), β-Arrestin1/2 dependent-pErk1/2: western blot, 5 min stimulation, operational model (Eq. 2), mean ± s.e.m. of three experiments in triplicate (table footnote).
From the text: as §1, §2
as §3, with “The proteins were visualized using enhanced chemiluminescence (GE Health Care). Image Studio ^TM Software was used for the pErk1/2 band density analysis.” left out

With Galanin [reference compound], in the experiment on Galr2 [1], the “ΔLog(τ/KA), Gαq-dependent-pErk1/2” value is on record as 0.00 ± .22 and the “Log(τ/KA), Gαq-dependent-pErk1/2” value is given as 6.90 ± 0.22. In addition, the “Galr2 internalization (decrease of cell-surface luminescent signal)” value with Galr2 [2] was “significantly decreased the luminescent signal in a dose-dependent manner; also recorded: efficiently induced internalization in a dose-dependent manner”. In the experiment on Galr2 [3], the “ΔLog(τ/KA), β-Arrestin1/2 dependent-pErk1/2” value was determined as 0.00 ± 0.40 and the “Log(τ/KA), β-Arrestin1/2 dependent-pErk1/2” value is reported as 6.42 ± 0.41.

B1: Spexin (peptide, UniProt Q9BT56 27-116, looked up)
Spexin: APQRLLERRNWTPQAMLYLKGAQGRRFISDQSRRKDLSDRPLPERRSPNPQLLTIPEAATILLASLQKSPEDEEKNFDQTRFLEDSLLNW
modifications: Spexin
notes: endogenous peptide ligand of Galr2 and Galr3; synthesized by AnyGen
In the case of B1, the “pathway responsible for agonist-induced Erk1/2 phosphorylation” value with Galr2 [1] (from comparison of wild-type, Gαq/11- and β-arrestin1/2-knockout HEK293 cells) is recorded as “likely mainly attributable to the G-protein-dependent signaling pathway”. Also, in the experiment with Galr2 [1], the “ΔLog(τ/KA), Gαq-dependent-pErk1/2” value is reported as 0.57 ± 0.22 and the “Log(τ/KA), Gαq-dependent-pErk1/2” value was found to be 7.47 ± 0.21. Further, the “Galr2 internalization (decrease of cell-surface luminescent signal)” value with Galr2 [2] was “marginally induce internalization of the receptor; also recorded: Galr2 internalization was not detected; also recorded: did not detect Galr2 internalization”. In the experiment on Galr2 [3], the “ΔLog(τ/KA), β-Arrestin1/2 dependent-pErk1/2” value is reported as 0.73 ± 0.13 and the “Log(τ/KA), β-Arrestin1/2 dependent-pErk1/2” value was 7.15 ± 0.14.
